Source: patent publication US20220403326A1, “MEDIA FORMULATIONS AND METHODS FOR PRODUCING PROGENITOR T CELLS” (priority 2019, published 2022)

Assays:
Type in all cases: cell-based, human
CD34+ HSPCs [1] = assay: Definitive screening design cytokine screen for proT cell differentiation and expansion; settings: for effect on total live cells, CD7+ lymphocytes and CD7+CD5+ cells relative to the control condition: day 0-7 and day 7-14, control SCF, FLT3L, TPO, IL-7 at 20 ng/ml each, linear regression model
Experimental: For experiments 7 days or longer, HSPCs were seeded at 63-125 cells/mm^2 (equivalent to 2000-4000 cells/well of a 96-well plate) on DL4+VCAM-1-coated surfaces. Experiments shorter than 7 days (CFSE and qPCR) were seeded at 470-780 cells/mm^2 (equivalent to 15,000-25,000 cells/well of a 96-well plate) to provide enough cells for analysis. Cells were cultured in 100 μl/well (32 μl/well for 384-well plate) of Iscove's Modified Eagle Medium (IMDM) supplemented with 20% bovine serum albumin, insulin, and transferrin (BIT 9500) serum substitute (Stemcell Technologies), 1 μg/ml low-density lipoprotein (LDL; Stemcell Technologies), 60 μM ascorbic acid (Sigma), 24 μM 2-mercaptoethanol (Sigma), and 1% penicillin-streptomycin (P/S; Invitrogen). The cytokines used in control condition were SCF, FLT3L, TPO, and IL-7 (also known as the “4F cytokines”, all of which were obtained from R&D Systems), each at a concentration of 20 ng/ml or 100 ng/ml as indicated in the text. All other cytokines were purchased from R&D Systems and used in the combinations and concentrations indicated in the text. For certain experiments, the γ-secretase inhibitor (2S)-N-[(3,5-Difluorophenyl)acetyl]-L-alanyl-2-phenyl] glycine 1,1-dimethylethyl ester (DAPT) or dimethyl sulfoxide (DMSO) was added to media at the concentrations indicated in the text.
For screening experiments, a Definitive Screening Design (DSD)^7 was employed where each factor was tested at three levels (scaled to [−1,0,1]). The design included at least 2m+1 runs, where m is the number of factors, comprised of m fold-over pairs plus a center run (with all factors at level 0) and with orthogonal blocking of UCB donors.^8
Absolute cell numbers were acquired for each cell population of interest and, for initial experiments, a z-score was calculated relative to the control condition:
where SE(⋅) is the standard error. Control conditions were the cytokines used previously in the DL4+VCAM-1 assay as in Shukla et al.^6 Stepwise regression using the minimum Bayesian information criterion method was used to determine significant terms and, from this, a linear regression model of z-scores was constructed that included main and quadratic effects and two-factor interactions. This provided a better- or worse-than estimate for each factor compared to the control. The DSD layout and regression model were constructed using JMP 13 software (SAS). Follow up experiments measuring the dose response of top factors, the regression model was fit to the absolute cell count. Values were square root or log-transformed as necessary to ensure that residuals were approximately normal before fitting the regression model.
Test conditions were arranged using serial dilutions of each cytokine and laid out using an Eppendorf epMotion 5070 liquid handler in 384-well plates previously coated with DL4 and VCAM-1.
To identify factors that enhance proT cell differentiation and expansion, a two-part screen was conducted from day 0-7 and day 7-14 to separate the effects of screened molecules on HSPCs and differentiating proT cells (FIG. 1a). Screened molecules were tested at three doses each in combination using a definitive screening design (DSD) experiment and a linear regression model was fit to empirical data to estimate dose response.^7 The response to factors was measured against a control condition that contained SCF, FLT3L, TPO and IL-7 cytokines as in Shukla et al.^6 but using a lower concentration of 20 ng/ml each.
Medium gray indicates the effect of the control condition; dark gray to black indicates an effect greater than the control condition; and light gray to white indicates an effect lesser than the control condition. The size of each circle indicates the significance of the effect in the linear regression model. Combinations of factors indicate two-factor interactions (e.g., TPO*IL-1β) or quadratic effects (e.g., IL-21*IL-21) in the regression model. […] IL-3 and TNFα were selected for further investigation. […]

CD34+ HSPCs [2] = assay: TPO requirement with or without TNFα, 14-day culture; settings: 14 days
Experimental: To assess the requirement for TPO in T lineage development, CD34+ HSPCs were analyzed by flow cytometry after 14 days in the presence or absence of TNFα, and further in the presence or absence of TPO.

CD34+ HSPCs [3] = assay: IL-3, TNFα or IL-3+TNFα culture on DL4+VCAM-1, flow cytometry on day 7 and day 14; settings: day 7 and day 14 (FIGS. 5d and e)
Experimental: For experiments 7 days or longer, HSPCs were seeded at 63-125 cells/mm^2 (equivalent to 2000-4000 cells/well of a 96-well plate) on DL4+VCAM-1-coated surfaces. Experiments shorter than 7 days (CFSE and qPCR) were seeded at 470-780 cells/mm^2 (equivalent to 15,000-25,000 cells/well of a 96-well plate) to provide enough cells for analysis. Cells were cultured in 100 μl/well (32 μl/well for 384-well plate) of Iscove's Modified Eagle Medium (IMDM) supplemented with 20% bovine serum albumin, insulin, and transferrin (BIT 9500) serum substitute (Stemcell Technologies), 1 μg/ml low-density lipoprotein (LDL; Stemcell Technologies), 60 μM ascorbic acid (Sigma), 24 μM 2-mercaptoethanol (Sigma), and 1% penicillin-streptomycin (P/S; Invitrogen). The cytokines used in control condition were SCF, FLT3L, TPO, and IL-7 (also known as the “4F cytokines”, all of which were obtained from R&D Systems), each at a concentration of 20 ng/ml or 100 ng/ml as indicated in the text. All other cytokines were purchased from R&D Systems and used in the combinations and concentrations indicated in the text. For certain experiments, the γ-secretase inhibitor (2S)-N-[(3,5-Difluorophenyl)acetyl]-L-alanyl-2-phenyl] glycine 1,1-dimethylethyl ester (DAPT) or dimethyl sulfoxide (DMSO) was added to media at the concentrations indicated in the text. […]

HSPCs = assay: CFSE proliferation assay of HSPCs on DL4+VCAM-1
Experimental: To track the number of cell divisions, cells were stained with 2.5 μM CellTrace™ CFSE (ThermoFisher) in PBS and incubated at 37° C. for 8 minutes. CFSE was quenched by adding 5 times the volume of IMDM+BIT and incubating at 37° C. for 5 minutes. Cells were then resuspended in fresh media and seeded on DL4+VCAM-1 for culture. For analysis, cells were collected and stained for CD34, CD7, and CD5 surface markers as described above and analyzed using flow cytometry. Proliferation was modelled using FlowJo™ software and further analysis was performed with R.
To track the number of cell divisions in response to each of IL-3 and TNFα, the HSPCs were first stained with carboxyfluorescein succinimidyl ester (CFSE). IL-3 or TNFα were added on day 0 and the number of divisions of each cell was analyzed on days 2, 3, 4 and 5.

With “SCF: cytokine stem cell factor, one of the 4F cytokines” the “effect on total live cells, CD7+ lymphocytes and CD7+CD5+ cells relative to the control condition” value (CD34+ HSPCs [1]) was “string positive effects”.

“TPO: cytokine thrombopoietin, one of the 4F cytokines” was tested, and the “CD7+ lymphoid cell development after removal of TPO” value (CD34+ HSPCs [2]; TNFα present) was “not detrimental”, the “number of CD7+ cells after removal of TPO” value (CD34+ HSPCs [2]; absence of TNFα) was “decreased significantly” and the “number of CD14/33+ myeloid cells after removal of TPO” value (CD34+ HSPCs [2]; with or without TNFα) was “decreased the number of CD14/33+ myeloid cells”.

B1: IL-7: cytokine interleukin 7, one of the 4F cytokines (protein, UniProt P13232 26-177, looked up)
Interleukin-7: DCDIEGKDGKQYESVLMVSIDQLLDSMKEIGSNCLNNEFNFFKRHICDANKEGMFLFRAARKLRQFLKMNSTGDFDLHLLKVSEGTTILLNCTGQVKGRKPAALGEAQPTKSLEENKSLKEQKKLNDLCFLKRLLQEIKTCWNKILMGTKEH
With B1 the “effect on total live cells, CD7+ lymphocytes and CD7+CD5+ cells relative to the control condition” value (CD34+ HSPCs [1]) was “string positive effects”.

B2: IL-3: cytokine; protein that in humans is encoded by the IL3 gene (accession P08700; SEQ ID NO: 7) (protein, listed as Homo sapiens)
chain: MSRLPVLLLLQLLVRPGLQAPMTQTTPLKTSWVNCSNMIDEIITHLKQPPLPLLDFNNLNGEDQDILMENNLRRPNLEAFNRAVKSLQNASAIESILKNLLPCLPLATAAPTRHPIHIKDGDWNEFRRKLTFYLKTLENAQAQQTTLSLAIF
With B2 the “number of CD14/33+ myeloid lineage cells, IL-3 compared with IL-3+TNFα conditions” value (CD34+ HSPCs [3]) was “similar”, the “effect on total live cells, CD7+ lymphocytes and CD7+CD5+ cells relative to the control condition” value (CD34+ HSPCs [1]) was “string positive effects” and the “dose response of live cells, CD7+ lymphocytes and CD7+CD5+ proT cells” value (CD34+ HSPCs [1]; range of concentrations, n=2 UCB donors) was “curved response in at least one population”. For the same molecule, the “average number of divisions vs control” value (HSPCs; CFSE, days 2-5) was “more divisions than the control group”, the “variance in the number of divisions vs control” value (HSPCs; CFSE, days 2-5) was “significantly larger variance” and the “CD7+ frequency vs control” value (HSPCs; by day 5) was “lower CD7+frequency than the control”. For the same molecule, the “cell fraction affected (CD7− vs CD7+ cells), number of divisions” value (HSPCs; cytokine added on day 0, days 2-5) was “predominantly affecting the CD7− fraction” and the “upregulation of CD7” value (HSPCs; days 2-5) was “upregulated CD7 comparably to the control”.
